# Experiments:
# [1] = molecular target: Human P-selectin (CD62P) on human platelets in whole blood (human) (UniProt P16109); test: flow cytometry, human whole blood, non-activated platelets
# [2] = molecular target: Human P-selectin (CD62P) on human platelets in whole blood (human) (UniProt P16109); test: flow cytometry, human whole blood, platelets activated with 200 uM TRAP
# [3] = molecular target: Human P-selectin (CD62P) on human platelets in whole blood (human) (UniProt P16109); test: flow cytometry, human whole blood, platelets activated with 2.5 uM ADP
# Sequence of UniProt P16109 (P16109 42-830): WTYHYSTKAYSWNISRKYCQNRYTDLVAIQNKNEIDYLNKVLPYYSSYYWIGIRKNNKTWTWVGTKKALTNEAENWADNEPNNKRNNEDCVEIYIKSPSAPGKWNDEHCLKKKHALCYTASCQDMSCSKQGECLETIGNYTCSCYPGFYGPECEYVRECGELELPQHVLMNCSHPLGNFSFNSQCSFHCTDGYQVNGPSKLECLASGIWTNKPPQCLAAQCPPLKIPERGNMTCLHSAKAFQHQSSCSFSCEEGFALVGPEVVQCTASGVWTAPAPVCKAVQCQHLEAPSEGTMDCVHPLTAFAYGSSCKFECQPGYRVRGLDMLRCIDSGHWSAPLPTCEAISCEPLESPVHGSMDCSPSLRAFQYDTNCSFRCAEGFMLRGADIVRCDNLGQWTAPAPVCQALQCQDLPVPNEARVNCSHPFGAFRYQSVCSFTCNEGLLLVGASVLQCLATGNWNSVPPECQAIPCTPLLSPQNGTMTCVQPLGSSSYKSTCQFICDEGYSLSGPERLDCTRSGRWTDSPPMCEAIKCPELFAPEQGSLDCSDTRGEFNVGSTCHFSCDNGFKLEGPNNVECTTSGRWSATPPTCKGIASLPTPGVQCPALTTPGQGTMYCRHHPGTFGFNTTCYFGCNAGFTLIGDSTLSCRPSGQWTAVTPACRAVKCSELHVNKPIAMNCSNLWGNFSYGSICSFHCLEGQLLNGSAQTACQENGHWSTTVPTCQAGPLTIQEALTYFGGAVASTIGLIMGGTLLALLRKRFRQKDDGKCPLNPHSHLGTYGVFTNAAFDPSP
substance,measurement,setting,value
"PC5-labeled antihuman P-selectin (CD62P, AK-4 clone) (antibody)",positivity (% of platelets),[1],0.4%
same,positivity (% of platelets),[2],97.8%
same,positivity (% of platelets),[3],73.4%
